Data taken from the DeepSol protein solubility set.

assay: soluble on expression in E. coli; label from the status in PepcDB or PDB records

Row | Sequence | soluble on expression in E. coli
1 | MLMPRQTTPPLSLPLVGGGRFDLSAETSTRWTLICFYRGLHCPICATYLKELEKRVADFAERGVACVAVSSDSEERAQAMAEKVGGGTLRFAYDLPLAEARDWGLYISTSRGKTSIGIEEPALFSEPGLFLVTPERTLYYGAVQTMPFVR | not soluble
2 | MGSDKIHHHHHHMFIKLNKGLDLPISGEPEQCVYAATAVRHIAVAGVDYIDLKPTMKVTEGDRVRLGQPLFEYKKLPGVVFTAPGAGRIVAINRGTRRILLSVVLQLDEQEDEETFIKYAPDELSNLADEQVKENLLISGLWTTLRTRPYSKVPDPATRPAAIFITAIDSNPLAADPVPIITAEMESFNHGLRILSRLTDGPLWVCQSPQAKLSLPEDLPQLQQARFAGPHPAGLPGTHIHFLQPVSAYKTVWYLNYQEVIAIGKLFVTGRLWTERIVALGGPGVKKPRLLRTRLGASLEELLAGELVESMDKRVISGSVWSGRKAVDELAFLGRHHLQVTVIGEKSEREFLGWLNPGGNKYSKLNVLFSSFFRKKRKFEFTASQQGSPRAMIPIDTFEEVMPLDILPAQLLRALLVMDTDMAQKLGCLELDEEDLALCSFICVGKHDYGVILRENLRQIEKEG | not soluble
3 | VICHGDFAPYNVALNGNQTVGIFDFDTAHPAPRLWDIAYAVYCWAPFKTNEYDALGDLNSQSARAKLFCDSYGLSNAEREKL | not soluble
4 | GSHMETVFTEKAPKPVGPYSQAIKVGNTLYVSGQIPIDPRTNEIVKGDIKVQTRQVLDNIKEIVKAAGFSLSDVAMAFVFLKDMNMFNDFNSVYAEYFKDKPPARVTVEVSRLPKDALIEIAVICSKG | soluble
5 | MGSDKIHHHHHHMLPGIVVKPLKTFADERGFFTEIMRRDWDVFEDEILQANMSVTYPGIVRAWHKHERGQVDYFVCIGGAIKICAYDDETQELAEIVSTGKNLQVVRVPGHYWHGFKAIGVEPAVLVYFVSRLYDYENPDEVRRPWNDSTIVPAKINGREDDPRCGKPWDWFYPPHK | not soluble
6 | MGSDKIHHHHHHMTTTKKTGERLIKKYPNRRLYDTETSTYITLTDVKQLVLEQEDFKVIDAKSSEDLTRSILLQIILEEESGGVPMFSSSMLSQIIRFYGHAMQGMMGTYLEKNIQAFIDIQSKLADQSKNLYENNAMNPEVWSQFMNMQAPMMQGMMTSYIEQSKNMFVQMQEQMQNQAKTMFSSFPFKPATPPGSEPEKK | not soluble
7 | MGSDKIHHHHHHMNERRLLLTGGWILSMDPAVGDLRQGDILIEGDRIAAVAPRIEAPEAQRIDAAGMIVLPGFVDTHRHTWQSCVRHRYADIDPQIYFAEMLGATGAAFRPDDVYIGTLLGAVSALDSGITTMLDWSHVQNSPEHADAAVLGLRDAGIRGIFAHGWPLVEGASWMFDSQRGHPEDIRRLRERYFSSDDQLLTLAMAARGPEMACREVWLRDLRLARELGIRSSIHMGAYARNGTARGIAQMHEAGVLGDDLTFVHCCCSGEDEIAMMADAGVSASLGVHCELNAQGIGDLPLDRMLAVGIRPSLSGDTETKCSGDMFTQMRHAFAYYRSWMGGNHSRVANAPATLSMRDVLEFATVAGARANGLDHKVGSLTPGKQADIVMIRGDDLNLAPVSDAVGAVVLAAHPGNVDTVFVAGRTVKRHGRMTGVDVDMLRHRAAASQHYVLGLR | not soluble
8 | MTNAGTTDLSWLPSDADEQLALGFKIVTNAYKTRVTSQEAEIRSLKGQLTEKQEQLSSIQKKYSNLEVQLIESTQRGNQLADENKQLITTIKKLNRDIDRLENLKKAVLNSIQEEHDVEDAHKYYSADDLLQTTAPRTMLEMNGNEDSCQSIINKIVNSDTHNIINGSFNSPYIGNVPLGEKNTDGRAFFRNARSRLSYEQFNQFLSNIKKLNNHQQKREETLKKAQAIFGEANLDLYEEFKVLISKHS | not soluble
9 | MGSDKIHHHHHHMERYNTMSGKKTESSDNIVLYPGLVKRLIEKGMEALKEKDAKKALTMFEQAEQYDAEPSQILFGKALCYVELGKLDDAVLLTDQMLRNDIGNYYDILQIHLSLLVQLGRYDEVVEMLDVVLAEDRLPAKHAESFYQLLHFSRQMVEDSPTYIKEPLSEELDLKETYDDINERDSLEQWHFLQQMRKHNNPADIRTLLSFVESESNDPALRSYALHMLTMHKVEKRVRIRKFDQEAEVIPVELNADEQQRFGNAVVEQLEARLAVENPSLFKMAEQLWWQFLYALYPFTPKPEQKDLWAGAVHVAVHESNGLPFDEEEIAGMYNCRVQQMLEKGEEIHFVETETFQGISGHSFR | not soluble
10 | SASVLKETAGLYETLKAEWNKKNPNLNKCGELLSKLKISLLELNFLPTTGTKLTKQQLILARDVLEIGALWSILKKDIPSFERYMAQLKCYYFDYKDELPESAYRHQLLGLNLLFLLSQNRVSEFHTELERLSAKDIQTNVYIRHPVSLEQYLMEGSYNKVFLAKGNIPAESYTFFIDTLLDTIRDEIAGCIEKAYEQIQFNEATRVLFFSSPKKMTDYAKKRNWTQSPDGYYSFSTQHQKTEEVTIPSTELAKQVIEYARQLEMIV | soluble
11 | MASETENIKYEESFIKNTRGMKLFTCKWVPAKQEPKALVFICHGYAMECSITMNSTARRLVKAGFAVYGIDYEGHGKSDGLSAYVPNFDHLVDDVSTHYTSICEKEENKGKMRFLLGESMGGAVLLLLHRKKPQFWDGAVLVAPMCKIAEEMKPSPLVISILAKLSGVIPSWKIIPGQDIIETAFKQPEIRKQVRENPYCYKGRPRLKTAYELLRVSTDLEKRLNEVSLPFIVLHGEDDKVTDKAVSRQLYEVASSSDKTFKLYPGMWHGLLYGETPENIETVFADIIGWLDKKVADESGGFESELKRKNDGIPLKG | soluble
12 | GMSRTNINFNNKRTELANKIWDIFIANGYENTTLAFIINKLGISKGALYHYFSSKEECADAAIENRVAFFSNEVLKESEEGLNSIERLKKILLAGIKITSVNEQVKEINSPSNKIFHQKLMVAIIKYFAPIYADIISQGNEEGVFKVKYPLETAEIILTLSHFYLDEDLFKWKKEDMSLKLTAFKETLIKILDADEDTFDFIK | soluble
13 | MTIHLSSLGQVYLVCGKTDMRQGIDSLAYLVKTHFELDPFSGQVFLFCGGRKDRFKALYWDGQGFWLLYKRFENGKLTWPSTEKDVKALTPEQVDWLMKGFSITPKINLSESRDFY | not soluble
14 | MKSVTSAQRPYQEVGAMIHDLIIKTPYNPGERLPPEREIAEMLDVTRTVVREALIMLEIKGLVEVRRGAGIYVLDSSGSHNTDSPDANVCNDAGPFELLQARQLLESNIAEFAALQATREDIVKMRQALQLEERELASSAPGSSESGDMQFHLAIAEATHNSMLVELFRQSWQWRENNPMWIQLHSHLDDSLYRKEWLGDHKQILAALIKKDARAAKLAMWQHLENVKQRLLEFSNVDDIYFDGYLFDSWPLDKVDA | not soluble
15 | MTTKEKVKALWQLCFDDNEEFVEMYFRLRYKNEINIAIESGDEIVSALQMIPYPMTFCGDTVQTSYISGACTHPDFRGNGVMRELLSQAFAKMLRNGTYFSTLIPAEPWLFDYYTRMGYASVFQYSVKEITVPEFIPSKEITVTSEIGCQKEVYEYLNSKLSGRTCCIQHSFEDFQVVMADLILSDGILVTARSENQINGLAIVYRRDKQLIISELFAETKDAEHSLLHHIKQFTGCRHMTQLLPPEKEQTQYPLGMARIINAKEVLQLYASAFPEDEMQLEVSDKQLSVNNGYYYLCNGKCMYSTERLPGAHIPMNISELTGRIFQALRPYMSLMLNK | not soluble
16 | MQPYWAAIEADIERYLKKSITIRPPETVFGPMHHLTFAAPATAASTLCLAACELVGGDRSQAMAAAAAIHLVHAAAYVHEHLPLTDGSRPVSKPAIQHKYGPNVELLTGDGIVPFGFELLAGSVDPARTDDPDRILRVIIEISRAGGPEGMISGLHREEEIVDGNTSLDFIEYVCKKKYGEMHACGAACGAILGGAAEEEIQKLRNFGLYQGTLRGMMEMKNSHQLIDENIIGKLKELALEELGGFHGKNAELMSSLVAEPSLYAAHHHHHHHH | soluble
17 | MTNTAKILNFCRGNFAKQERNVADLDDGYARLSNMLLEAYSGADLTKRQFKVLLAILRKTYGWNKPMDRITDSQLSEITKLPVKRCNEAKLELVRMNIIKQQGGMFGPNKNISEWCIPQNEGKSPKTRDKTSLKLGDCYPSKQGDTKDTITKEKRKDYSSENSGESSDQPENDLSVVKPDAAIQSGSKWGTAEDLTAAEWMFDMVKTIAPSARKPNFAGWANDIRLMRERDGRNHRDMCVLFRWACQDNFWSGNVLSPAKLRDKWTQLEINRNKQQAGVTACKPKLDLTNTDWIYGVDL | not soluble
